Measured values reported in patent US6361968.

What was measured:
[1] = molecular target: c-Myc bHLH protein (murine) (UniProt P01108); assay: heterodimer with c-Myc, dimerization study of FIG. 9
[2] = molecular target: bHLH MAX (unmodified Max) (UniProt P61244); assay: homodimer, dimerization study of FIG. 9
c-Jun (unmodified) = c-Jun (unmodified) (UniProt P05412); assay: thermal melt of the mixture (FIG. 4)
Sequence of c-Jun (unmodified) (P05412 241-331 limits assumed): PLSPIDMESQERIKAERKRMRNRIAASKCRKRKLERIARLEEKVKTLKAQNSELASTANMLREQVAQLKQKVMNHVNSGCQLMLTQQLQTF

Sequence of c-Myc bHLH protein (murine) (P01108 368-454 limits assumed, form in doubt): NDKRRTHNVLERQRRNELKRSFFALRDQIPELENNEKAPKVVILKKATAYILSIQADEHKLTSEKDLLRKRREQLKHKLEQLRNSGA

Substance | Kd [1] [µM] | Kd [2] [µM] | Tm (c-Jun (unmodified)) [°C]
bHLH MAX (unmodified Max) (from UniProt P61244 23-113) | 0.03 | 6 | –
0heptad-Fos (c-Fos with the basic region deleted) (designed binder) | – | – | 53
